Measurements from US20040265918A1.

Experiments:
[1] = target: p29 vesicles (vesicles carrying p29, the substrate binding subunit of type II iodothyronine 5'-deiodinase, D2) (rat) (UniProt Q62876); test: in vitro actin binding assay, competition with native F-actin-bound myosin V, 10 nM T4
[2] = target: p29^GFP-labeled vesicles (vesicles carrying a GFP-tagged p29 fusion protein) [GFP: P42212]; test: competition with native myosin V in the p29^GFP vesicle / F-actin binding assay, 10 nM T4, ~2-3 pmol polypeptide
[3] = target: F-actin (actin cytoskeleton of rat astrocytes, Triton-insoluble fraction) (rat); test: in vitro actin binding assay, release with 5 mM EGTA
[4] = target: F-actin (actin cytoskeleton of rat astrocytes, Triton-insoluble fraction) (rat); test: in vitro actin binding assay, Triton fractionation, gamma counting and SDS-PAGE
[5] = target: F-actin (actin cytoskeleton of rat astrocytes, Triton-insoluble fraction) (rat); test: in vitro actin binding assay, release after 0.1 mM Ca^2+, 1 mM Mg^2+, 0.1 mM ATP
[6] = target: F-actin (actin cytoskeleton of rat astrocytes, Triton-insoluble fraction) (rat); test: in vitro actin binding assay (F-lysate plus V-lysate, Triton fractionation, SDS-PAGE)
[7] = target: F-actin (actin cytoskeleton of rat astrocytes, Triton-insoluble fraction) (rat); test: F-lysate plus V-lysate with p29^GFP vesicles, fluorescence of the Triton-insoluble pellet

## ? myosin V^tail (entire myosin V tail, residues 953 to 1852) (from UniProt Q99104 953-1852)
[1]
  percent of the T4-dependent binding of p29 vesicles to F-actin blocked (5 µl): 50%
  percent of the p29 binding blocked (10 µl): > 95%
[2]
  percent decrease of p29 binding to F-actin: > 75%

## ? myosin ^1513 (residues 1513-1852) (from UniProt Q99104 1513-1852)
[2]
  percent decrease of T4-dependent p29 binding: > 75%

## ? myosin ^1767 (residues 1767-1852) (from UniProt Q99104 1767-1852)
[2]
  percent decrease of T4-dependent p29 binding: > 75%

## ? myosin ^1830 (residues 1830-1852) (from UniProt Q99104 1830-1852) (peptide)
[2]
  percent decrease of T4-dependent p29 binding: > 75%

## p29 vesicles (vesicles carrying p29, the substrate binding subunit of type II iodothyronine 5'-deiodinase, D2) (from UniProt Q62876 1-234)
[3]
  percent of the Ca^2+-stimulated release of p29 from F-actin blocked by EGTA: > 50%
[4]
  percent of total p29 vesicles bound to F-actin (after 10 nM T4): 80%
[5]
  percent of p29 vesicles released from F-actin by Ca^2+, Mg^2+ and ATP: 70%
[6]
  percent of p29 remaining in the non-actin bound, Triton-soluble fraction (10 nM T3): > 90%
  percent of radiolabeled p29 bound to the Triton insoluble, F-actin fraction (10 nM T4): > 70%

## p29^GFP-labeled vesicles (vesicles carrying a GFP-tagged p29 fusion protein) (from UniProt P42212 1-238)
[7]
  percent increase in p29^GFP vesicle binding to F-actin at 100 nM T3: 10 to 20%
